From US8889827B2, “Opiorphin peptide derivatives as potent inhibitors of enkephalin-degrading ectopeptidases” (Institut Pasteur, priority 2008, dated 2014)
Non-standard residues stand in square brackets, D forms with d. No end group written: not given here.

Columns and labels:
Assay type in all cases: biochemical
human NEP = biological target: T1, human NEP (Homo sapiens, UniProt P08473); assay: Screening of opiorphin peptide-derivatives on hNEP (endopeptidase and carboxydipeptidase activities); details: for inhibitory potency towards human NEP (in words): screening, 50 μM final concentration, triplicate
T1 construct: devoid of their respective N-terminal cytosol and transmembrane segment; purchased R&D Systems
T1 sequence (P08473 52-750 limits assumed): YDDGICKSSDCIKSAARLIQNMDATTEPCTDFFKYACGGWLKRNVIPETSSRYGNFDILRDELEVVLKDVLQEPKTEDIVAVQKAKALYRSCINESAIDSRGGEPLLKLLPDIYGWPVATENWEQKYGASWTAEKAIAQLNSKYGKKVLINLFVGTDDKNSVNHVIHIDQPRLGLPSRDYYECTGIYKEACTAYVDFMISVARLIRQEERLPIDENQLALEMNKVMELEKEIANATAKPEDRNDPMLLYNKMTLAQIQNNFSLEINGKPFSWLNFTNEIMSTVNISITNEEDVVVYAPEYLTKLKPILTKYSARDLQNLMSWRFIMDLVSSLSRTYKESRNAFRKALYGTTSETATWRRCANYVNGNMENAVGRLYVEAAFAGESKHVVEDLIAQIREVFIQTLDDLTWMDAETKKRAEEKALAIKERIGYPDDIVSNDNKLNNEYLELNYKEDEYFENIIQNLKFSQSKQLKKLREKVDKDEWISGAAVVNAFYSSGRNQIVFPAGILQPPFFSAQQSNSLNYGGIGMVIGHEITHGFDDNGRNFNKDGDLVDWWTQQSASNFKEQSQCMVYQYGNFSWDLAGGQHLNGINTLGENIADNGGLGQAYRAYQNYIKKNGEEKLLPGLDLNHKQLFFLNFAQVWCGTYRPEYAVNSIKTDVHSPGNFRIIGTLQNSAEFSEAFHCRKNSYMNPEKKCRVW
Protocol: (§1) According to conditions of initial velocity measurement: the time, pH and temperature of incubation as well as enzyme and substrate concentrations were defined for each assay. Hydrolysis of substrates was measured by real-time monitoring their metabolism rate by the two peptidases in the presence and absence of tested inhibitory compound (concentrations ranging from 1 to 50 μM). These were added to the preincubation medium. The background rate of substrate autolysis representing the fluorescent signal obtained in the absence of enzyme was subtracted to calculate the initial velocities in RFU (Relative Fluorescent Unit)/min.
(§2) (2.3 min-interval successive measures) by using a fluorimeter microplate reader (monochromator Infinite 200-Tecan) at 320 nm and 420 nm excitation and emission wavelengths, respectively.
Using black half-area 96 well microplate, the standard reaction consisted of enzyme (2.5 ng) in 100 mM Tris-HCl pH 6.5 containing 50 mM NaCl (100 μl final volume). The substrate (4 μM final concentration) was added after preincubation for 10 min and the kinetics of appearance of the fluorescent signal (RFU) was directly analyzed for 40 min at 28° C. (2.3 min-interval successive measures) by using the fluorimeter reader at 320 nm excitation and 420 nm emission wavelengths.
In addition, the intramolecularly quenched fluorogenic peptide, Mca-BK2 (10 μM), was submitted to hydrolysis by 5 ng rhNEP under the same experimental conditions as those described behind.
(§3) Compounds were tested in triplicate at 50 μM final concentration.

recombinant human AP-N = biological target: T2, recombinant human AP-N (Homo sapiens, UniProt P15144); assay: AP-N-ectopeptidase activity, Ala-Mca substrate; details: for inhibitory preference for human AP-N (in words): screening at 50 μM, AP-N versus NEP; for inhibitory potency towards human AP-N (in words): screening, 50 μM final concentration, triplicate
T2 construct: devoid of their respective N-terminal cytosol and transmembrane segment; purchased R&D Systems
T2 sequence (P15144 33-967 limits assumed): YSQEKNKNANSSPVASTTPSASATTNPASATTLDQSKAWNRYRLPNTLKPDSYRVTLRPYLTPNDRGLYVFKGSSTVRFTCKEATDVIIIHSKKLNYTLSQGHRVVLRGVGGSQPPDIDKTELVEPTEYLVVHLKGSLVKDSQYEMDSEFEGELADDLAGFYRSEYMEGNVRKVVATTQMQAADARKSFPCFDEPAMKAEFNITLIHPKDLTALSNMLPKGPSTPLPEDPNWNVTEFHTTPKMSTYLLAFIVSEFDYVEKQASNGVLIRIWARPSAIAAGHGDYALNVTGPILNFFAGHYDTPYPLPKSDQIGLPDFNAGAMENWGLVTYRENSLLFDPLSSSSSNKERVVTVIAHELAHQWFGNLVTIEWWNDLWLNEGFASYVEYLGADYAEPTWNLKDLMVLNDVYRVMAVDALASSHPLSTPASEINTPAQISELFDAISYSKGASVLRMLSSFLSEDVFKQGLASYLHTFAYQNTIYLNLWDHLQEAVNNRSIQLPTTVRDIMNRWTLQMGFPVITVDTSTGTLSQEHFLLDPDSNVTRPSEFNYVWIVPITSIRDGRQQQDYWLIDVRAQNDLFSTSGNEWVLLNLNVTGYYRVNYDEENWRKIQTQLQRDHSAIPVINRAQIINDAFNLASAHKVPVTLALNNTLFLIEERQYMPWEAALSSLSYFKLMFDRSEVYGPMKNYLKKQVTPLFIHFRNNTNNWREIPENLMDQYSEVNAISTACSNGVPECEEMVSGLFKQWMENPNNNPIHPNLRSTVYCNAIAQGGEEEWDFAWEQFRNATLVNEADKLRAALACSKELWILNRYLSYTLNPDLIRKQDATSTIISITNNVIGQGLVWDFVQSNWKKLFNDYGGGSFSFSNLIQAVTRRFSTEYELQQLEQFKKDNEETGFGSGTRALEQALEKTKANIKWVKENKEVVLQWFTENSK
Protocol: (§4) Formal kinetic analysis was performed for each assay using real-time fluorescence monitoring of specific substrate hydrolysis.
(§5) Recombinant human NEP and recombinant human AP-N (devoid of their respective N-terminal cytosol and transmembrane segment) that were purchased from R&D Systems, were used as pure source of peptidase.
FRET is the distance-dependant transfer of energy from a donor fluorophore (Abz=ortho-aminobenzoyl or Mca=7-methoxycoumarin-4-yl-acetyl) to an acceptor fluorophore (DnpOH=2,4-dinitrophenyl or EDDnp=2,4-dinitrophenyl ethylenediamine). • L-alanine-Mca, Ala-Mca, a fluorogenic substrate for measuring aminopeptidase activity was purchased from Sigma.
as §1
Measurement of AP-N-ectopeptidase activity using Ala-Mca substrate. Using black half-area 96 well microplate the standard reaction consisted of enzyme (4 ng) in 100 mM Tris-HCl pH 7.0 (100 μl final volume).
as §3

[1] = biological target: T3, recombinant human NEP (rhNEP-Endopeptidase activity) (Homo sapiens, UniProt P08473); assay: NEP-endopeptidase activity, FRET substrate Abz-dR-G-L-EDDnp; details: screening at 50 μM and IC50 comparison, NEP endopeptidase versus AP-N
T3 construct: devoid of their respective N-terminal cytosol and transmembrane segment; purchased R&D Systems
T3 sequence (P08473 52-750 limits assumed): as the sequence (P08473 52-750 limits assumed) above
Protocol: as §4, §5, §1, §2

[2] = biological target: T4, membrane-bound human NEP expressed by LNCaP epithelial cells (Homo sapiens, UniProt P08473); assay: Substance P cleavage by membrane-bound hNEP of human cell membranes; details: increase vs Opiorphin native peptide in the same test
T4 construct: human cell membranes as source of hNEP; endogenous in cells; host or cells: LNCaP epithelial cells (membranes)
T4 sequence (P08473 whole entry): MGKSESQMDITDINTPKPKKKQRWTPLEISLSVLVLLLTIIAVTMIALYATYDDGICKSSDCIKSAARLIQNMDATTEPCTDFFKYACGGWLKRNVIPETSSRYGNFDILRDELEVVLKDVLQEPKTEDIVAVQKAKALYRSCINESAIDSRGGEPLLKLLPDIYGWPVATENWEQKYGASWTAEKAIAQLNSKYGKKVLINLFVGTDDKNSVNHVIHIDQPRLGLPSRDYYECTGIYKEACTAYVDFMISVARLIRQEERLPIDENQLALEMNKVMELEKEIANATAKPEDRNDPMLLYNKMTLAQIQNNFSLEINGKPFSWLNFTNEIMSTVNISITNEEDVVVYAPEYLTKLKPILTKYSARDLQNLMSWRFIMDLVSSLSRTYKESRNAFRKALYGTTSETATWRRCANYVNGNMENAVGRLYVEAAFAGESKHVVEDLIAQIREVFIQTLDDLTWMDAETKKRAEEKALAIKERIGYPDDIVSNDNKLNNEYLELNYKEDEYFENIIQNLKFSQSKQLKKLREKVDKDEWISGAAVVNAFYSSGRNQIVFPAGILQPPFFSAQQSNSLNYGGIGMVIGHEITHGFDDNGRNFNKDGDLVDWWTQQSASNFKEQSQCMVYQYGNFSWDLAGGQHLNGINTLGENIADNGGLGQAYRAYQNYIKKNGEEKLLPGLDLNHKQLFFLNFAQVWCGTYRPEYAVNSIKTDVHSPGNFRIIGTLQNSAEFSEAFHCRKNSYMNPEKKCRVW

| Compound | inhibitory potency towards hAP-N compared to Opiorphin-QRFSR native peptide (in words) (recombinant human AP-N) | inhibitory preference for human AP-N (in words) (recombinant human AP-N) | inhibitory potency towards hNEP compared to Opiorphin-QRFSR native peptide (in words) (human NEP) | inhibitory potency towards human NEP (in words) (human NEP) | further results |
| --- | --- | --- | --- | --- | --- |
| N=C(N)NCCC[C@H](NC(=O)[C@H](CO)NC(=O)[C@H](Cc1ccccc1)NC(=O)[C@H](CCCNC(=N)N)NC(=O)[C@H](CCC(N)=O)NC(=O)[C@@H](N)CSSC[C@H](N)C(=O)N[C@@H](CCC(N)=O)C(=O)N[C@@H](CCCNC(=N)N)C(=O)N[C@@H](Cc1ccccc1)C(=O)N[C@@H](CO)C(=O)N[C@@H](CCCNC(=N)N)C(=O)O)C(=O)O [[CQRFSR]2] |  |  |  |  | increase inhibitory potency towards hNEP-Endo and CarboxyDi-peptidase activities compared to CQRFSR monomer peptide (human NEP; increase vs CQRFSR monomer): at least 2 fold |
| QRGPR [NH2-QRGPR-COOH] | equivalent inhibitory potency | inhibitory preference for human AP-N | weak inhibitory potency | weak inhibitory potency |  |
| QHNPR [NH2-QHNPR-COOH] | equivalent inhibitory potency | inhibitory preference for human AP-N | weak inhibitory potency | weak inhibitory potency |  |
| QRFSK |  |  | equivalent inhibitory potency |  |  |
| CCCCCCCC(=O)OC[C@H](NC(=O)[C@H](Cc1ccccc1)NC(=O)[C@H](CCCNC(=N)N)NC(=O)[C@H](CCC(N)=O)NC(=O)CCCCCCNC(=O)[C@@H](N)CS)C(=O)N[C@@H](CCCNC(=N)N)C(=O)O [C[PE6]QRF[S—O-Octanoyl]R, C—(—HN—(CH2)6—CO-)-QRF—S(O-octanoyl)-R] |  |  |  |  | increase inhibitory potency compared to Opiorphin native peptide, Substance P test [2]: at least 5 fold |
| QKFSR |  |  | light reduction in inhibitory potency |  |  |
| dR-dS-dF-dR-dQ ([dR][dS][dF][dR][dQ]) [NH2-dRdSdFdRdQ-COOH] |  | preference for AP-N activity |  | did not display significant inhibitory activity | inhibitory potency towards human AP-N (in words) (recombinant human AP-N): did not display significant inhibitory activity |

Further lines, with some results ahead:

| inhibitory potency towards hAP-N compared to Opiorphin-QRFSR native peptide (in words) (recombinant human AP-N) | inhibitory preference for human AP-N (in words) (recombinant human AP-N) | inhibitory potency towards hNEP compared to Opiorphin-QRFSR native peptide (in words) (human NEP) | inhibitory potency towards human NEP (in words) (human NEP) | Compound | further results |
| --- | --- | --- | --- | --- | --- |
|  |  |  | potent dual inhibitors | N=C(N)NCCC[C@H](NC(=O)[C@H](CO)NC(=O)[C@H](Cc1ccccc1)NC(=O)[C@H](CCCNC(=N)N)NC(=O)[C@H](CCC(N)=O)NC(=O)CCCCCCCCCCCCNC(=O)[C@@H](N)Cc1ccc(O)cc1)C(=O)O [Y(PE12)QRFSR-COOH, Y—(—HN—(CH2)12—CO-)-QRFSR] | inhibitory potency towards human AP-N (in words) (recombinant human AP-N): potent dual inhibitors; inhibitory preference for human NEP endopeptidase activity (in words) [1]: inhibitory preference for human NEP endopeptidase activity |
| equivalent inhibitory potency | inhibitory preference for human AP-N | weak inhibitory potency | weak inhibitory potency | QRFPR |  |
|  |  |  | potent dual inhibitors | N=C(N)NCCC[C@H](NC(=O)[C@H](CO)NC(=O)[C@H](Cc1ccccc1)NC(=O)[C@H](CCCNC(=N)N)NC(=O)[C@H](CCC(N)=O)NC(=O)[C@@H](N)CS)C(=O)O [CQRFSR-COOH, CQRFSR] | reinforced inhibitory potency towards hNEP compared to QRFSR native peptide (human NEP; increase vs QRFSR native peptide): 5 fold |
